Assay results taken from US10801027B2, “Inhibitors of SRSF1 to treat neurodegenerative disorders” (University of Sheffield, priority 2016, dated 2020).
Residue numbers refer to the chain shown, from its start. Values belong to the molecule of their own block, whether it stands above or below them.

Assays:
[1] = MND patients; cited from earlier work
[2] = system: poly-Gly-Pro and poly-Gly-Ala DPRs; experiment: Western blot of RAN-translated DPRs in N2A cells; format: cell-based, mouse; settings: G4C2×38 or C4G2×39 constructs, 72 h
Description: Neuro-2a (ATCC) cells were cultured in Dulbecco's Modified Eagle Medium (Sigma) supplemented with 10% fetal bovine serum [FBS] (Gibco), 5 U/ml Penstrep (Lonza) and 5 mM sodium pyruvate. Cells were maintained in a […] incubator with 5% CO2. 75,000 Neuro-2a cells were split into each well of 24-well plates and transfected for 72 h with 500 ng pcDNA6.2-GW/EmGFP-Control miR RNAi (ThermoFisher) or pcDNA6.2-GW/EmGFP-mouse SRSF1 miR1+2 RNAi and 200 ng pcDNA 3.1/RAN-G4C2×38-sense or RAN-C4G2×39-antisense using 3 μg PEI/1 μg DNA and one tenth medium volume OptiMEM (ThermoFisher).
HEK cells were transfected for 72 h with 650 ng pcDNA6.2-GW/EmGFP-Control miRNA, pCDNA6.2-GW/EmGFP-human SRSF1 miR1+2 RNAi or LV-EmGFP-human SRSF1 miR1+2 RNAi constructs and 50 ng p3×FLAG/human-SRSF1 using 3.5 μg PEI/ml media and one tenth medium volume of OptiMEM. Neuro-2a cells were split into each well of 24-well plates (75,000 cells/well) and transfected for 72 h with 350 ng pcDNA6.2-GW/EmGFP-Control miR RNAi (ThermoFisher), pcDNA6.2-GW/EmGFP-mouse SRSF1 miR1+2 RNAi, p3×FLAG, p3×FLAG/SRSF1 (11-196), p3×FLAG/SRSF1 (11-196)-m2 or p3×FLAG/SRSF1 (11-196)-m4 and 350 ng pcDNA 3.1/RAN-G4C2×38-sense or RAN-C4G2×39-antisense using 3 μg PEI/1 μg DNA and one tenth medium volume OptiMEM.
Proteins were extracted from HEK or Neuro-2a cells 72 hours after transfection. […] Protein extracts were quantified using Bradford Reagent (BioRAD), resolved by SDS-PAGE, electroblotted onto nitrocellulose membrane and probed using the relevant primary antibody. […] (kindly received from Prof Stuart Pickering Brown) primary antibodies were detected with horseradish peroxidase (HRP)-conjugated rabbit secondary antibody [1:5000 dilution] […] (kindly provided from Prof Dieter Edbauer) primary antibodies were detected using HRP-conjugated mouse secondary antibody [1:5000 dilution] […] For dot blot analysis, 50 μg total protein extracts prepared in ice-cold lysis buffer were loaded onto a nitrocellulose membrane using a microfiltration apparatus (Biorad) and analysed by western immunoblotting as previously described.

NXF1 = target: T1, NXF1 (Mus musculus, UniProt Q99JX7); experiment: Anti-FLAG co-immunoprecipitation of endogenous NXF1 in N2A cells; format: binding; settings: FLAG-tagged protein, 48 h
T1 construct: endogenous in cells; host or cells: Neuro-2a (N2A)
T1 sequence (Q99JX7 1-618): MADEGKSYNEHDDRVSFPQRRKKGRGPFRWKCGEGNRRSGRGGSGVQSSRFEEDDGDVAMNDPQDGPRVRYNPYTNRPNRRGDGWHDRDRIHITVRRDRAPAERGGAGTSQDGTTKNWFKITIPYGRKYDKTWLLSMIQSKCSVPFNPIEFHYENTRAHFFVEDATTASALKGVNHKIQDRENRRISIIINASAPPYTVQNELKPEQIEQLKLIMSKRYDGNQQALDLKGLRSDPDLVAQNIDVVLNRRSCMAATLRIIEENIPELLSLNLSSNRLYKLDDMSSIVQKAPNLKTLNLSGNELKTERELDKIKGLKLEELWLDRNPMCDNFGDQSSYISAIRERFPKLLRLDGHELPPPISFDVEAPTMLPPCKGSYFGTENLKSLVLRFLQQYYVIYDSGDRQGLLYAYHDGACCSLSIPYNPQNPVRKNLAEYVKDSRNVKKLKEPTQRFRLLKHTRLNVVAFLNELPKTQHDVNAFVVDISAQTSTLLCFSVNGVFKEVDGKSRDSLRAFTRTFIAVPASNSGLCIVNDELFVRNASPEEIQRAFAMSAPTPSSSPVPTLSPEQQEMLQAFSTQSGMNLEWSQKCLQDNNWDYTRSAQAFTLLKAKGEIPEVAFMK
Description: Cells were split into 1×10 cm plates/treatment (1.5×10^6 cells/plate) and transfected with 15 μg p3×FLAG, p3×FLAG/SRSF1 (11-196), p3×FLAG/SRSF1 (11-196)-m2 or p3×FLAG/SRSF1(11-196)-m4 using 3 μg PEI/1 μg DNA and one tenth medium volume OptiMEM.
Proteins were extracted from Neuro-2a cells 48 hours after transfection. Cells were briefly washed in ice cold PBS, scraped into 500 μl ice cold lysis buffer, passed through a 21G gauge needle 10 times and left to lyse on ice for 10 minutes. Lysed cells were cleared by centrifugation at maximum speed at 4° C. for five minutes and protein extracts were quantified using Bradford Reagent. 2 mg of total protein in 1 ml lysis buffer was incubated with 30 μl anti-FLAG® M2 affinity resin slurry (Sigma A2220) (which had been blocked overnight with 1% BSA in IP lysis buffer) for 2 hours at 4° C. on a rotating wheel. […] 30 μg total protein and 15 μl captured protein complexes were resolved by SDS-PAGE, electroblotted onto nitrocellulose membrane and probed using FLAG, NXF1 clone 53H8 [1:2000] (Abcam ab50609) and […]-tubulin.

Molecule: Nc1nc2ccc(OC(F)(F)F)cc2s1 [riluzole]
life extension [1]: around 6 months

co-immunoprecipitation of endogenous NXF1 (NXF1): specifically immunoprecipitated
B1: SRSF1-m2: FLAG-tagged SRSF1 11-196 double R117,118A mutant (protein)
chain: AGNNDCRIYVGNLPPDIRTKDIEDVFYKYGAIRDIDLKNRRGGPPFAFVEFEDPRDAEDAVYGRDGYDYDGYRLRVEFPRSGRGTGRGGGGGGGGGAPRGRYGPPSAASENRVVVSGLPPSGSWQDLKDHMREAGDVCYADVYRDGTGVVEFVRKEDMTYAVRKLDNTKFRSHEGETAYIRVKVDG
modifications: left off: small tags and cut ends
notes: FLAG-tagged SRSF1 11-196 double R117,118A mutant
effect on RAN translation / production of sense and antisense DPRs [2]: little effect

co-immunoprecipitation of endogenous NXF1 (NXF1): specifically immunoprecipitated
B2: SRSF1 11-196 wild type: FLAG-tagged SRSF1 amino-acids 11-196 wild type (protein)
chain: B1 chain with A107R, A108R
modifications: left off: small tags and cut ends
notes: FLAG-tagged SRSF1 amino-acids 11-196 wild type
effect on RAN translation / production of sense and antisense DPRs [2]: no
